These are literature values, as cited in PMC3309041.

As a reminder, the Kd is the concentration at which binding is half-saturated.

The data set addresses IL-8 (monomeric) (Homo sapiens) (UniProt P10145). Particulars: cited from earlier work.

Chain of IL-8 (monomeric) (Homo sapiens) (P10145 28-99): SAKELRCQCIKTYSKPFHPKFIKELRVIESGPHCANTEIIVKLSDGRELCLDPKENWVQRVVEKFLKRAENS
Chain of CXCR1 N-terminal peptide N-terminus (P21109 11-44): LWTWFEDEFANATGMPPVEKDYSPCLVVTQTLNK

As for “CXCR1 N-terminal peptide N-terminus (from UniProt P21109)”, the Kd is 8.6 µM.
